T1: nSR100 (Mus musculus, UniProt Q8BKA3)
T1 construct: host or cells: mouse N2A cells
T1 sequence (Q8BKA3 1-608): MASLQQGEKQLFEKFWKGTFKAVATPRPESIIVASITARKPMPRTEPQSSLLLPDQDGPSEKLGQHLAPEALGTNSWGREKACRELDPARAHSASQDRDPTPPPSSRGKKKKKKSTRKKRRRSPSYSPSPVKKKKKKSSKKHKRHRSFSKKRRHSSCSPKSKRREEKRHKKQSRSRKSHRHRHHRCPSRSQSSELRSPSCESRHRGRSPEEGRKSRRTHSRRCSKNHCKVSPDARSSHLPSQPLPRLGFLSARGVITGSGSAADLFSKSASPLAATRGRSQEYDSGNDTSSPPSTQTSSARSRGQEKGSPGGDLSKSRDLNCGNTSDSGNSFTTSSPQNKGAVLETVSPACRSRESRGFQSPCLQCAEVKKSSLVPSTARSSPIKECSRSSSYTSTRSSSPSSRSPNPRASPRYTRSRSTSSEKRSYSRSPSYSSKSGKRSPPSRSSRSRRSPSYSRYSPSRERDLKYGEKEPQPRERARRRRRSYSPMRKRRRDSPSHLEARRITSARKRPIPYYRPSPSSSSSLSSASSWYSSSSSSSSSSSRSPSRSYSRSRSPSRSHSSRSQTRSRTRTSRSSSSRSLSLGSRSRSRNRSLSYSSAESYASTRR

B1: Bcas2 (protein, UniProt Q9D287 2-225, looked up)
Pre-mRNA-splicing factor SPF27: AGTGLVAGEVVVDALPYFDQGYEAPGVREAAAALVEEETRRYRPTKNYLSYLTAPDYSAFETDIMRNEFERLAARQPIELLSMKRYELPAPSSGQKNDITAWQECVNNSMAQLEHQAVRIENLELMSQHGCNAWKVYNENLVHMIEHAQKELQKLRKHIQDLNWQRKNMQLTAGSKLREMESNWVSLVSKNYEIERTIVQLENEIYQIKQQHGEANKENIRQDF
B2: Sf3a2 (protein, UniProt Q62203 1-475, looked up)
Splicing factor 3A subunit 2: MDFQHRPGGKTGSGGVASSSESNRDRRERLRQLALETIDINKDPYFMKNHLGSYECKLCLTLHNNEGSYLAHTQGKKHQTNLARRAAKEAKEAPAQPAPEQVKVEVKKFVKIGRPGYKVTKQRDTEMGQQSLLFQIDYPEIAEGIMPRHRFMSAYEQRIEPPDRRWQYLLMAAEPYETIAFKVPSREIDKAEGKFFFLQFHFKMEKPPAPPSLPAGPPGVKRPPPPLMNGLPPRPPLPDALPPPPPGGLPLPPMPPTGPAPSGPPGPPQMPPPAPGVHPPAPVVHPPTSGVHPPAPGVHPPAPVVHPPTSGVHPPAPGVHPPTPGVHPPAPGVHPPAPGVHPPAPGVHPPTPGVHPPAPGVHPPAPGVHPPAPGVHPPPSAGVHPQAPGVHPPAPAVHPQAPGVHPPAPGIHPQAPGVHPQPPPGVHPAAPGVHPQPPGVHPSNPGVHPAPMPPMLRPPLPSDGPGNMPPPPPGN
B3: Sf3b2 (protein, UniProt Q3UJB0 1-878, looked up)
Splicing factor 3B subunit 2: MAAEHPEPPKGELQLPPPPPPGHYGAWAAQELQARLAEIGAPIQGSREELVERLQTYTRQTGIVLNRPVLRGEDGDKAAPPPMSAQLSGIPMPPPPMGLPPLQPPPPPPPPPPGLGLGFPMAHPPNLGPPPPLRVGEPVALSEEERLKLAQQQAALLMQQEERAKQAAVLMEQERQQEIAKMGTAVPRPPQDMGQLGVRTPLGPRVAAPVGPVVPTPTVLPMGAPVPRPRGPPPPPGDENREMDDPSVGPKIPQALEKILQLKESRQEEMNSQQEEEEMETDTRSSLGQSASETEEDTVSISKKEKNRKRRNRKKKKKPQRVRAASSESSGDREKDSGRSRGSDPPAADVEIEYVTEEPEIYEPNFIFFKRIFEAFKLTDDVKKEKEKEPEKLDKMESSAVPKKKGFEEEHKDSDDDSSDDEQEKKPEAPKLSKKKLRRMNRFTVAELKQLVARPDVVEMHDVTAQDPKLLVHLKATRNSVPVPRHWCFKRKYLQGKRGIEKPPFELPDFIKRTGIQEMREALQEKEEQKTMKSKMREKVRPKMGKIDIDYQKLHDAFFKWQTKPKLTIHGDLYYEGKEFETRLKEKKPGDLSDELRISLGMPVGPNAHKVPPPWLIAMQRYGPPPSYPNLKIPGLNSPIPESCSFGYHAGGWGKPPVDETGKPLYGDVFGTNAAEFQTKTEEEEIDRTPWGELEPSDEESSEEEEEEESDEDKPDETGFITPADSGLITPGGFSSVPAGMETPELIELRKKKIEEAMDGSETPQLFTVLPEKRTATVGGAMMGSTHIYDMSTVMSRKGPAPELQGVEVALAPEELELDPMAMTQKYEEHVREQQAQVEKEDFSDMVAEHAAKQKQKKRKAQPQDSRGGSKKYKEFKF
B4: Rbmx2 (protein, UniProt Q8R0F5 1-326, looked up)
RNA-binding motif protein, …: MNPLTKVKLINELNEREVQLGVAEKVSWHSEYKHSAWIFVGGLPYELTEGDIICVFSQYGEIVNINLVRDKKTGKSKGFCFLCYEDQRSTVLAVDNFNGIKIKGRTIRVDHVSNYRAPQESEDVDDVTRELQEKGCGVKTPPSSPPEVSEDEDAKLTKKHKKDKKEKKKRKKEKTEGQAQAEQPSCSRSATVKEKKDERASRKHSSKTSERAQKSEHRESKKSHSGSPDGRSSYHARAEDPECKARKEKPKHEHKSASRREAEEKSRERERGRSSGTHSGRHRGHSDGRSHRSRSRSRSPDKSHRHKKYRHSRERDSYHGSDRRHH
B5: Luc7l (protein, UniProt Q9CYI4 1-371, looked up)
Putative RNA-binding protein …: MSAQAQMRALLDQLMGTARDGDETRQRVKFTDDRVCKSHLLDCCPHDILAGTRMDLGECTKIHDLALRADYEIASKERDLFFELDAMDHLESFIAECDRRTELAKKRLAETQEEISAEVSAKAEKVHELNEEIGKLLAKAEQLGAEGNVDESQKILMEVEKVRAKKKEAEEEYRNSMPASSFQQQKLRVCEVCSAYLGLHDNDRRLADHFGGKLHLGFIQIREKLDQLRKTVAEKQEKRNQDRLRRREEREREERLGRRSGSRTRDRRRSRSRDRRRRRSRSTSRERRKFSRSRSRDRYRRHRSRSRSHSRGHRRASRDRSTKYKFSRERSLREESWEYGRNERGPTDWRLENSNGKTASRRSEEKEAGEI
B6: Crnkl1 (protein, UniProt P63154 1-690, looked up)
Crooked neck-like protein 1: MAASTAAGKQRIPKVAKVKNKAPAEVQITAEQLLREAKERELELLPPPPQQKITDEEELNDYKLRKRKTFEDNIRKNRTVISNWIKYAQWEESLKEIQRARSIYERALDVDYRNITLWLKYAEMEMKNRQVNHARNIWDRAITTLPRVNQFWYKYTYMEEMLGNVAGARQVFERWMEWQPEEQAWHSYINFELRYKEVERARTIYERFVLVHPAVKNWIKYARFEEKHAYFAHARKVYERAVEFFGDEHMDEHLYVAFAKFEENQKEFERVRVIYKYALDRISKQEAQELFKNYTIFEKKFGDRRGIEDIIVSKRRFQYEEEVKANPHNYDAWFDYLRLVESDAEADTVREVYERAIANVPPIQEKRHWKRYIYLWVNYALYEELEAKDPERTRQVYQASLELIPHKKFTFAKMWLYYAQFEIRQKNLPFARRALGTSIGKCPKNKLFKGYIELELQLREFDRCRKLYEKFLEFGPENCTSWIKFAELETILGDIERARAIYELAISQPRLDMPEVLWKSYIDFEIEQEETERTRNLYRQLLQRTQHVKVWISFAQFELSSGKEGSVAKCRQIYEEANKTMRNCEEKEERLMLLESWRSFEDEFGTVSDKERVDKLMPEKVKKRRKVQADDGSDAGWEEYYDYIFPEDAANQPNLKLLAMAKLWKKQQQEREAAEQDPDKDIDESESSSF
B7: Smc3 (protein, UniProt Q9CW03 1-1217, looked up)
Structural maintenance of …: MYIKQVIIQGFRSYRDQTIVDPFSSKHNVIVGRNGSGKSNFFYAIQFVLSDEFSHLRPEQRLALLHEGTGPRVISAFVEIIFDNSDNRLPIDKEEVSLRRVIGAKKDQYFLDKKMVTKNDVMNLLESAGFSRSNPYYIVKQGKINQMATAPDSQRLKLLREVAGTRVYDERKEESISLMKETEGKREKINELLKYIEERLHTLEEEKEELAQYQKWDKMRRALEYTIYNQELNETRAKLDELSAKRETSGEKSRQLRDAQQDARDKMEDIERQVRELKTKISAMKEEKEQLSAERQEQIKQRTKLELKAKDLQDELAGNSEQRKRLLKERQKLLEKIEEKQKELAETEPKFNSVKEKEERGIARLAQATQERTDLYAKQGRGSQFTSKEERDKWIKKELKSLDQAINDKKRQIAAIHKDLEDTEANKEKNLEQYNKLDQDLNEVKARVEELDRKYYEVKNKKDELQSERNYLWREENAEQQALAAKREDLEKKQQLLRAATGKAILNGIDSINKVLEHFRRKGINQHVQNGYHGIVMNNFECEPAFYTCVEVTAGNRLFYHIVDSDEVSTKILMEFNKMNLPGEVTFLPLNKLDVRDTAYPETNDAIPMISKLRYNPRFDKAFKHVFGKTLICRSMEVSTQLARAFTMDCITLEGDQVSHRGALTGGYYDTRKSRLELQKDVRKAEEELGELEAKLNENLRRNIERINNEIDQLMNQMQQIETQQRKFKASRDSILSEMKMLKEKRQQSEKTFMPKQRSLQSLEASLHAMESTRESLKAELGTDLLSQLSLEDQKRVDALNDEIRQLQQENRQLLNERIKLEGIITRVETYLNENLRKRLDQVEQELNELRETEGGTVLTATTSELEAINKRVKDTMARSEDLDNSIDKTEAGIKELQKSMERWKNMEKEHMDAINHDTKELEKMTNRQGMLLKKKEECMKKIRELGSLPQEAFEKYQTLSLKQLFRKLEQCNTELKKYSHVNKKALDQFVNFSEQKEKLIKRQEELDRGYKSIMELMNVLELRKYEAIQLTFKQVSKNFSEVFQKLVPGGKATLVMKKGDVEGSQSQDEGEGSGESERGSGSQSSVPSVDQFTGVGIRVSFTGKQGEMREMQQLSGGQKSLVALALIFAIQKCDPAPFYLFDEIDQALDAQHRKAVSDMIMELAVHAQFITTTFRPELLESADKFYGVKFRNKVSHIDVITAEMAKDFVEDDTTHG

Biological target: T1, nSR100
Assay: AP-MS nSR100 interaction partners from mouse N2A cells (Table 5)
Type: binding
Conditions: for AvgP (average of the SAINT scores) / MaxP (maximal SAINT score): bait Srrm4; for FoldChange between the prey Avg spectra of the bait and control purifications: bait Srrm4, 0.1 added to prevent division by 0; for AvgSpec (average number of spectra per replicate): bait Srrm4, 2 replicates; for Spectra (number of spectra for the prey in the purification of the bait): AP-MS; for SpecSum: bait Srrm4, sum of spectra over 2 replicates
[1] = bait Srrm4, biological replicate 1 (first number of the cell)
[2] = bait Srrm4, biological replicate 2 (second number of the cell)

Source text: By applying affinity purification coupled to mass-spectrometry (AP-MS), several interaction nSR100 partner proteins were detected that provide insight into mechanisms of post-translational regulation of nSR100 levels.

Molecule	AvgP (average of the SAINT scores)	MaxP (maximal SAINT score)	FoldChange between the prey Avg spectra of the bait and control purifications	AvgSpec (average number of spectra per replicate)	Spectra (number of spectra for the prey in the purification of the bait) [1]	Spectra (number of spectra for the prey in the purification of the bait) [2]	SpecSum
B1	0.97	0.99	25	2.5	2	3	5
B2	0.97	1	30	3	2	4	6
B3	0.96	0.96	3.08	20	20|20	20|20	40
B4	0.96	0.98	9	4.5	4	5	9
B5	0.95	0.99	3.17	19	18	20	38
B6	0.95	0.95	20	2	2|2	2|2	4
B7	0.91	0.96	7	7	6	8	14

Source: patent US10772928B2, “Modulation and detection of a neuronal alternative splicing regulatory network for treatment and diagnosis of neurological disorders” (The Governing Council of the University of Toronto, priority 2014, dated 2020)
